Results reported in patent publication US20050112063A1, “Methods for inhibiting vascular permeability” (priority 2002, published 2005).
Entries after “also recorded” stand apart in the source; their conditions may differ.

What was measured:
[1] = tested on: A2058 human melanoma-bearing mice; experiment: Miles assay on tumor-bearing mice (tumor vessel permeability); assay type: in vivo; settings: 30 mg/kg/day for three days
Experimental: One of the problems with angiogenesis-dependent diseases is increased vessel permeability (due to high levels of VPF) which results in edema and loss of proteins. A decrease in vessel permeability is beneficial in those diseases. We have found, using the Miles assay ([…], et al., Cancer Res, 56:172-181 (1996)), that free and bound TNP-470 block permeability. Briefly, a dye, Evans Blue (1% in PBS), was injected i.v. to anesthesized mice. After 10 min, human recombinant VEGF165 (50 ng/50 μl) was injected intradermally into the back skin. Leakage of protein-bound dye was detected as blue spots on the underside of the back skin surrounding the injection site. After 20 min mice were euthanized. Then, the skin was excised, left in formamide for 5 days to be extracted and the solution read at 620 nm. Putative angiogenesis inhibitors such as free and conjugated TNP-470 were injected daily 3 days (30 mg/kg/day) prior to the VEGF challenge. The same was repeated on tumor-bearing mice to evaluate the effect of angiogenesis inhibitors on tumor vessel permeability.

Mice [2] = experiment: Miles assay (induced vessel permeability); assay type: in vivo
Experimental: One of the problems with angiogenesis-dependent diseases is increased vessel permeability (due to high levels of VPF) which results in edema and loss of proteins. A decrease in vessel permeability is beneficial in those diseases. […] Briefly, a dye, Evans Blue (1% in PBS), was injected i.v. to anesthesized mice. After 10 min, human recombinant VEGF165 (50 ng/50 μl) was injected intradermally into the back skin. Leakage of protein-bound dye was detected as blue spots on the underside of the back skin surrounding the injection site. After 20 min mice were euthanized. Then, the skin was excised, left in formamide for 5 days to be extracted and the solution read at 620 nm. Putative angiogenesis inhibitors such as free and conjugated TNP-470 were injected daily 3 days (30 mg/kg/day) prior to the VEGF challenge. The same was repeated on tumor-bearing mice to evaluate the effect of angiogenesis inhibitors on tumor vessel permeability.

[3] = tested on: Bovine adrenal capillary endothelial cells; experiment: BCE proliferation assay; assay type: cell-based; settings: challenged with bFGF, 72 h; data not shown
Experimental: Bovine adrenal capillary endothelial cells were seeded on gelatinized plates (15,000/well). Following 24 h incubation, cells were challenged with free and conjugated TNP-470, and bFGF (1 ng/ml) was added to the medium. Cells were counted after 72 h.

lungs = experiment: IL-2 induced pulmonary edema, relative weight of the lungs; assay type: in vivo; settings: 3 days treatment, edema induced with IL-2 i.m. (FIG. 12)
[4] = tested on: Aortic arches from day-14 chick embryos; experiment: Chick aortic ring assay; assay type: cell-based
Experimental: Aortic arches were dissected from day-14 chick embryos and cut into cross-sectional fragments, everted to expose the endothelium, and explanted in Matrigel. When cultured in serum-free MCDB-131 medium, endothelial cells outgrow and three-dimensional vascular channel formation occurred within […]. Free and conjugated TNP-470 were added to the culture.

[5] = tested on: Bovine capillary endothelial cells (BCE); experiment: Immunostaining of tight junction proteins (β-catenin, occludin, ZO-1); assay type: cell-based
Experimental: Bovine capillary endothelial cells (BCE) were cultured in the presence of 0.2, 0.5 and 2 μg/ml human endostatin for three days. The cells were fixed and immunostained with anti-β-catenin, occludin, and ZO-1 antibodies (Zymed Laboratories, CA). The staining was developed using FITC-conjugated secondary antibodies and visualized under fluorescent microscopy. Immunostaining for β-catenin marked the cell borders and was more intense when two cells contacted each other. […] There was no difference in β-catenin staining between 0.5 and 2.0 μg/ml endostatin. […] Similar results were obtained with ZO-1 immunostaining. […] This is the first documentation of the effects of endostatin on tight junctions that may explain, in part, the mechanism of its antiangiogenic activities. Similar experiments were performed in which BCE were incubated in the presence and absence of 0.5 μg/ml endostatin for 3 days followed by stimulation with PAF for 20 minutes. The cells were fixed and immunostained with anti-α-catenin, occludin, and ZO-1 antibodies (Zymed Laboratories, CA), as described above.

mice (SCID) = experiment: Duration of exposure: Alzet pump, skin vessel permeability with Evans Blue; assay type: in vivo
Experimental: In order to test if continuous exposure to the antiangiogenic factor (endostatin) is required to repress blood vessel permeability, mice (SCID) were anesthetized and “Alzet” pumps loaded with the antiangiogenic factor or saline were implanted intraperitoneally. The pumps release 1 μl the antiangiogenic factor per hour. Skin vessel permeability using Evans Blue dye was performed as described above. Saline and the antiangiogenic factor treated mice were examined 2, 3 and 4 days after pump implantation, as described above (FIG. 3). […] In both groups, PAF injection induced higher vessel permeability than saline injection. […] However, in both groups PAF injection induced higher vessel permeability than saline injection. […] Since the tumor vessels are continuously permeabilized and plasma proteins contained within the tumor support its vascularization the anti-permeability effect of the antiangiogenic factor offers a possible mechanism for its anti-tumor activity.

FVB/NJ mice = experiment: Evans Blue dye extravasation in skin after intradermal VEGF; assay type: in vivo
Experimental: (§1) The antiangiogenic factor (endostatin) was injected intraperitoneally to FVB/NJ mice for 4 days. Immediately after the last injection, mice were anasthesized and received intravenous injection of 100 μl Evans Blue dye (1% in PBS). Subsequently, different amounts of VEGF165, VEGF121 or saline were injected intradermaly. After 20 minutes, mice were sacrificed and skin flap from the back was removed and photographed. Skin samples from the injection sites were excised and incubated in formamide for 5 days in order to extract the dye and O.D. was measured at 620 nm. […] Quantitative analysis of Evans Blue dye extravasation (FIG. 1) confirmed the lower skin capillary permeability of the antiangiogenic factor-treated mice and indicated the weak permeability-inducing effect of VEGF in these mice.

Mice [6] = experiment: Swelling of lung tissue in mice injected with micro-encapsulated VEGF-producing cells; assay type: in vivo; settings: VEGF producing cells together with endostatin producing cells, 5 days
Excerpt: Dilation of the lung tissue may result in lung dysfunction and development of pulmonary hypertension. Mice injected with micro-encapsulated cells producing VEGF (approximately 0.5×10^6 cells per mouse) developed thickened lung parenchyma 5 days after injection. At a higher magnification we observed generation of several cell layers between the alveoli compared with one layer of cells in mice injected with micro-encapsulated control cells or with micro-encapsulated cells producing endostatin (Endost). […] Moreover, treatment with endostatin reduced the number of cell layers between the alveoli and the lungs of mice that were treated with endostatin appeared similar to control mice. Therefore, endostatin appears to block the swelling of lung tissue and may be used for treatment of pulmonary hypertension.

[7] = tested on: Bovine capillary endothelial cells (BCE); experiment: In vitro diffusion of FITC-dextran through endothelial cell monolayer (Transwells); assay type: cell-based
Experimental: The effects of the antiangiogenic factor (endostatin) on skin vessel permeability in vivo were tested in an in vitro diffusion model designed to mimic blood vessel permeability. Bovine capillary endothelial cells (BCE) were seeded in collagen coated inserts of “Transwells” and grown to confluence. The antiangiogenic factor was added every 24 hours. Four days later the inserts were washed with BCE culture medium and the following tracers and permeability regulators were added to the inserts. Half of the inserts received 5 mg/ml FITC-labeled dextran 10 kDa and the other half received 5 mg/ml FITC-labeled dextran 70 kDa. In addition, some inserts received 50 ng/ml VEGF165 or 100 nM PAF. Control inserts received BCE culture medium with fluorescent tracers only. The fluorescence in the lower wells was measured after 10, 20, 30, 45 and 60 minutes by transferring the inserts into new wells.
In order to follow the kinetic of the diffusion process, the flow of the tracer was calculated as fluorescent counts per minute (FIGS. 5 and 6). […] In contrast, the flow in control cells was constant and was lower than that observed in PAF and VEGF165-treated cells.

Nude mice = experiment: Evans Blue dye extravasation in skin after intradermal PAF; assay type: in vivo
Experimental: as §1
In order to test if the effects of the antiangiogenic factor (endostatin) on vascular permeability is VEGF-specific, we have tested the effects of intradermal injection of platelet-activating factor (PAF) in Nude mice that were previously injected with the antiangiogenic factor and in control mice, as described above. […] Quantitative analysis of Evans Blue dye extravasation (FIG. 2) confirmed the lower skin capillary permeability of the antiangiogenic factor-treated mice compared with control and the lack of PAF-induced hyperpermeability in these mice. […]

Humans = experiment: Histamine-induced wheal and flare test in skin; assay type: in vivo; settings: intradermal histamine
Experimental: Antiangiogenic treatment has entered into clinical trials recently. Molecules that are tested in phase 1 and 2 clinical trials include endostatin, angiostatin, TNP-470, thalidomide, anti-VEGF antibodies, PTK787, SU-5416, SU-6668 and others. […] Mice that received endostatin for several days had lower diffusion of Evans blue from the skin capillaries in response to intradermal VEGF and PAF injection compared with normal mice. The existing test of histamine-induced wheal and flare in skin can be used in order to test bioactivity of endostatin and other antiangiogenic factors. Intradermal injection of histamine leads to the formation of local adema ([…]) due to blood vessel hyperpermiability. […] This test will serve as an early surrogate marker for the bioactivity of endostatin and other antiangiogenic factors and help to determine the treatment's efficiency in individual patients.

Molecule: CO[C@@H]1[C@H](OC(=O)NC(=O)CCl)CC[C@]2(CO2)[C@H]1[C@@]1(C)O[C@@H]1CC=C(C)C [TNP-470]
- tumor vessel permeability [1]: decreased
- VEGF, PAF and histamine-induced vascular leakage (Mice [2]; Miles assay, compared to control (FIGS. 8A-8E)): prevents
- BCE cell growth [3]: inhibited
- pulmonary edema (relative weight of the lungs) (lungs): reduces pulmonary edema
- concentration that showed efficacy (reduced number and length of vascular sprouts) [4]: 50 pg/mL

Molecule: O=C1CCC(N2C(=O)c3ccccc3C2=O)C(=O)N1 (centres unmarked) [Thalidomide]
- vessel permeability (Mice [2]; FIGS. 9A-9D): no effect

B1: endostatin (protein, UniProt P39060 1572-1754, looked up)
Endostatin: HSHRDFQPVLHLVALNSPLSGGMRGIRGADFQCFQQARAVGLAGTFRAFLSSRLQDLYSIVRRADRAAVPIVNLKDELLFPSWEALFSGSEGPLKPGARIFSFDGKDVLRHPTWPQKSVWHGSDPNGRRLTESYCETWRTEAPSATGQASSLLGGRLLGQSAASCHHAYIVLCIENSFMTASK
modifications: Endostatin
notes: antiangiogenic factor; human endostatin used on BCE cells
- PAF-induced reduction of staining intensity of β-catenin, occludin and ZO-1 ([5]; 0.5 μg/ml for 3 days, then PAF for 20 minutes): not in endostatin-treated cells
- ZO-1 immunostaining ([5]; 0.2-2.0 μg/ml, three days): Cells boundaries were only visible in the presence
- β-catenin staining, 0.5 versus 2.0 μg/ml ([5]; three days): no difference
- treatment time required to reduce skin vessel permeability (mice (SCID); Alzet pump intraperitoneally): at least 3 days
- blood vessel permeability in response to PAF, saline vs treated mice (mice (SCID); day two after pump implantation): no significant difference
- vessel permeability in saline treated mice compared with treated mice (mice (SCID); days three and four, saline and PAF injections): significantly higher vessel permeability than in the antiangiogenic factor treated mice
- Evans Blue dye leakage (skin capillary permeability) (FVB/NJ mice; injected intraperitoneally for 4 days, vs control): overall lower dye leakage than the control
- induction of hyperpermeability by VEGF injection (FVB/NJ mice; intradermal VEGF165 or VEGF121, 4 days treatment): minor induction of hyperpermeability
- accumulation of extracellular matrix in lung tissue (Mice [6]): no accumulation of extracellular matrix
- cell layers between the alveoli (Mice [6]): fewer cell layers
- flow of the tracer (fluorescent counts per minute) ([7]; 10 kDa and 70 kDa dextrans, vs control cells): significant reduced flow; also recorded: lower than that of control cells
- course of tracer flow over time ([7]; 60 minutes period): constant flow
- sum of fluorescent count over 60 minutes ([7]; 4 days pre-treatment, vs control, VEGF165-treated and PAF-treated cells, 10 kDa and 70 kDa dextran): significantly lower fluorescent counts
- reduction in fluorescent counts, 70 kDa compared with 10 kDa dextran ([7]; pre-treated BCE cells): more pronounced in the diffusion of 70 kDa dextran
- PAF-induced vascular permeability (Nude mice; intradermal PAF): repressed
- vascular permeability (skin flaps, Evans Blue) (Nude mice; vs control): inhibits vascular permeability
- histamine-induced zone of edema (Humans): reduced zone of edema
